Data on 13 molecules can be found in patent US20260191974A1 (UNIVERSITY OF NORTH CAROLINA AT CHAPEL HILL, published 2026).

As a reminder, the Kd is a measure of binding affinity in units of concentration. Read a low Kd as higher affinity. One may read the koff as the rate constant with which the complex falls apart. Read a low koff as a long-lived complex. What is called kon is the rate constant with which the complex forms. A low value points to slower complex formation.

Experiment [1] concerns the target T1, biotinylated B7-H3 (B7-H3b), immune checkpoint protein.
T1 construct: also called biotin immobilized B7-H3; streptavidin immobilized B7-H3
T1 sequence (Q5ZPR3 whole entry, species assumed, looked up): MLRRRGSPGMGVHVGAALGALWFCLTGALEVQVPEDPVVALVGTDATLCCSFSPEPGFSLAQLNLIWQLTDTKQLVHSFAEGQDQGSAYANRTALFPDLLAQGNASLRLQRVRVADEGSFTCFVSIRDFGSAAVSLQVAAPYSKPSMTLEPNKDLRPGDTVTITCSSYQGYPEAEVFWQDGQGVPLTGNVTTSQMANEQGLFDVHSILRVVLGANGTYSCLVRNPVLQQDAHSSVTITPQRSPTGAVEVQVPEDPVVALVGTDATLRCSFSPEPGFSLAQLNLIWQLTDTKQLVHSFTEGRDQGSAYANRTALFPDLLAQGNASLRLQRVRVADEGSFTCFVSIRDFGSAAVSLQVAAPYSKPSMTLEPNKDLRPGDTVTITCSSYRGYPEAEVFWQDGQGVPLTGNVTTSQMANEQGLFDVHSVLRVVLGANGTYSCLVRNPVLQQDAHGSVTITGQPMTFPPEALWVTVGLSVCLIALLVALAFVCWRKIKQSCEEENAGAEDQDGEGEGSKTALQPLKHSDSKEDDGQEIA
Kind of experiment: JP5 alanine mutant library in mRNA display: background screen on beads, then selection on biotinylated B7-H3; NGS, enrichment in the selection over the input library. The text has this: FIGS. 17A-17B. JP5 alanine mutant library design and screen. (FIG. 17A) Each library member with the parent JP5 sequence on the top. JP5 was mutated at each residue to an Alanine. All library members, and JP5, were screened first against background components (magnetic beads) to remove nonspecific binders and then against biotinylated B7-H3 (see FIG. 14B). […] A value of >1 indicates stronger enrichment in the selection, whereas a value<1 indicates a stronger enrichment in the input library.
A single variant library of JP5 (FIG. 13A) and JP3 (FIG. 14A) was carried out. Each residue was mutated to include potentially 20/20 canonical amino acids. All library members were screened first against background components (magnetic beads) to remove nonspecific binders and then against biotinylated B7-H3 (FIG. 13B). […] The recovered material from the B7-H3 selection of JP5 and JP3 was sent for NGS (FIG. 15 and FIG. 16, respectively). In addition, JP5 was subjected to an alanine mutant scan (FIG. 17A). All library members were screened first against background components (magnetic beads) to remove nonspecific binders and then against biotinylated B7-H3 (see FIG. 13B). […] The selected AMs will be tested with surface plasmon resonance (SPR) to assess binding affinity.

In experiment [2] the target is T2, human B7-H3 (hB7-H3) (human, UniProt Q5ZPR3 29-461, limits assumed).
T2 construct: The construct is not described
T2 sequence (looked up): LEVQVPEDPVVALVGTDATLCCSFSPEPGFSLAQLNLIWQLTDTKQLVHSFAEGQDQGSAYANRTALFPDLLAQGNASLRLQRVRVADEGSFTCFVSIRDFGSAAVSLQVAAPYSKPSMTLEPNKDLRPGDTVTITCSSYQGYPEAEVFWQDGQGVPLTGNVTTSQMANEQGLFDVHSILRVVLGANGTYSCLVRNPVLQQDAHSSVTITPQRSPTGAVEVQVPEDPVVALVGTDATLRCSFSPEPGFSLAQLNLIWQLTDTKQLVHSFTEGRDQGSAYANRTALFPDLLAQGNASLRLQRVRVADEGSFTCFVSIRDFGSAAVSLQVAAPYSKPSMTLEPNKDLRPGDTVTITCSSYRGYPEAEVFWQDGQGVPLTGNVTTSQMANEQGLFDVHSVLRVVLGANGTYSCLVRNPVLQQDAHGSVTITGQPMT
Kind of experiment: SPR; reduced (no disulfide bridge). (In general: SPR reads the build-up and loss of mass on a sensor chip optically.)

Experiment [3] deals with T2, human B7-H3 (hB7-H3). Kind of experiment: SPR; hB7-H3 as ligand on the chip, peptide as analyte.
Experiment [4] concerns the target T2, human B7-H3 (hB7-H3). As to the kind of experiment: SPR.
The target of experiment [5] is T3, murine B7-H3 (mB7-H3) (murine, UniProt Q8VE98 29-244, limits assumed).
T3 construct: The construct is not described
T3 sequence (looked up): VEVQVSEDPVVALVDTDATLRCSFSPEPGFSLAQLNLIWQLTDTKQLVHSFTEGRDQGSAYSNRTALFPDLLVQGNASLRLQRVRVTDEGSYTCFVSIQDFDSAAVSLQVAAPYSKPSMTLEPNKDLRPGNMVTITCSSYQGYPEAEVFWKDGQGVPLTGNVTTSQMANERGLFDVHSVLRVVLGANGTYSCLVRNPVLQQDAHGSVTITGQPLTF
As to the kind of experiment: SPR.

Experiment [6] concerns the target T3, murine B7-H3 (mB7-H3). Kind of experiment: SPR; mB7-H3 as ligand on the chip, peptide as analyte.
In experiment [7] the target is T2, human B7-H3 (hB7-H3). Kind of experiment: SPR; oxidized (with disulfide bridge).
Experiment [8] deals with T1, biotinylated B7-H3 (B7-H3b), immune …. As to the kind of experiment: SPR, Biacore 8K single-cycle kinetics, biotinylated B7-H3 on NeutrAvidin chip, peptide as analyte. As to the method:
Surface Plasmon Resonance (SPR) analysis. Binding kinetics between our selected peptide (and variants) and biotinylated B7-H3 (B7-H3b) were assessed through SPR analysis using a BIACORE 8K SPR system (GE Healthcare). The running buffer was 1×PBS pH7.5, 0.05% TWEEN® 20 and all analysis was carried out at 25° C. B7-H3b was loaded onto a NeutrAvidin SPR Chip (Series S Sensor Chip NA, 29407997, Cytiva) at a flow rate of […] to a surface density of 1000-1500 response units. Analyte was then injected over a series of five concentrations and quantified by BIACORE single-cycle kinetics method. For our selected peptide (B1.1) and the Met9Nle variant a range of 7.5, 15, 30, 60, 120 nM were run. For the linear variant concentrations of 50, 100, 200, 400, 800 nM were run. Binding sonograms were generated using a standard 1:1 binding kinetics model and kinetics constants determined using standard BIACORE evaluation software.

Experiment [9] shares this target. As to the kind of experiment: SPR (BIACORE 8K, single-cycle kinetics, 1:1 fit); biotinylated B7-H3 on a NeutrAvidin chip, peptide as analyte at 7.5-120 nM. The source says:
FIGS. 4A-4G. (FIG. 4A) Selection schematic detailing the selection process for identifying binders against B7-H3. (FIG. 4B) qPCR results of the mTG mediated B7-H3 selection. (FIG. 4C) B7-H3 selection results and complete NGS analysis of B7-H3 hits. (FIG. 4D) NGS data of the selection hits. […] Arrow indicates the peptide pursued for binding validation. (FIG. 4E) EIC ([M+2], 948.91 m/z) traces corresponding to the product of the mTG reaction with linear B1.1 peptide and the synthetic lactam, disulfide peptide. (FIG. 4F) Surface Plasmon Resonance (SPR) analysis of the selected peptide (B1.1), the Met9Nle variant, and the linear variant. […] The selected B1.1 and the Met9Nle variant were analyzed at analyte concentrations of 7.5, 15, 30, 60, 120 nM. The linear variant was analyzed at analyte concentrations of 50, 100, 200, 400, 800 nM. […] (FIG. 4G) Individual SPR curves. Fitted curve and raw data are shown.
Surface Plasmon Resonance (SPR) analysis. Binding kinetics between our selected peptide (and variants) and biotinylated B7-H3 (B7-H3b) were assessed through SPR analysis using a BIACORE 8K SPR system (GE Healthcare). […] Analyte was then injected over a series of five concentrations and quantified by BIACORE single-cycle kinetics method. […] Binding sonograms were generated using a standard 1:1 binding kinetics model and kinetics constants determined using standard BIACORE evaluation software.

Bridges are numbered along the chain shown (N, C = ends). DBX = not defined here

B1: AM3 (peptide)
peptide: Ac-CWTARDINGTRC-NH2
modifications: bridge 1-12; also: bracket C1-C12, bond type not given here
notes: Member of the JP5 alanine mutant library; also called JP5 alanine mutant 3
Molecule B1 yielded an SELECTION/INPUT in experiment [1] of 0.309.

B2: AM2 (peptide)
peptide: Ac-CWAIRDINGTRC-NH2
modifications: bridge 1-12; also: bracket C1-C12, bond type not given here
notes: Member of the JP5 alanine mutant library; also called JP5 alanine mutant 2
With B2, in experiment [1], the SELECTION/INPUT was determined as 1.4.

B3: AM4 (peptide)
peptide: Ac-CWTIADINGTRC-NH2
modifications: bridge 1-12; also: bracket C1-C12, bond type not given here
notes: Member of the JP5 alanine mutant library; also called JP5 alanine mutant 4
In [1], B3 registered an SELECTION/INPUT of 0.58.

B4: reduced B1.1 (no disulfide bridge) (peptide)
peptide: WALQLCHSMFYTCKSG
modifications: no disulfide bridge (reduced cysteines C6 and C13); lactam bridge Q4-K14 and N-terminal acetylation as in B1.1
notes: also called reduced form of B1.1
B4 showed a Kd in experiment [2] of 198 nM. Besides, in [3], the koff came to 14.7 s⁻¹ and the kon worked out at 7.44e+07 M⁻¹ s⁻¹.

B5: AM9 (peptide)
peptide: Ac-CWTIRDINGARC-NH2
modifications: bridge 1-12; also: bracket C1-C12, bond type not given here
notes: Member of the JP5 alanine mutant library; also called JP5 alanine mutant 9
Turning to B5, the SELECTION/INPUT in experiment [1] was found to be 0.422.
For the molecule Ac-CWTIRDINGTRCG-NH2 (linker 1-12 via DBX; reading uncertain, also called JP5 variant) [JP5, thioether (dibromoxylene) linked macrocyclic peptide from the DBX-mediated B7-H3 selection], the Kd was determined as 772 nM in experiment [4] and 591 nM in experiment [5]. For the same molecule, the koff in experiment [3] was determined as 0.0966 s⁻¹; in experiment [6], 0.0605 s⁻¹. Also, the results for the kon in experiment [3] and in experiment [6] were 125000 M⁻¹ s⁻¹ and 102000 M⁻¹ s⁻¹, respectively.

B6: AM5 (peptide)
peptide: Ac-CWTIRAINGTRC-NH2
modifications: bridge 1-12; also: bracket C1-C12, bond type not given here
notes: Member of the JP5 alanine mutant library; also called JP5 alanine mutant 5
In experiment [1], B6 displayed an SELECTION/INPUT of 0.411.

B7: AM10 (peptide)
peptide: Ac-CWTIRDINGTAC-NH2
modifications: bridge 1-12; also: bracket C1-C12, bond type not given here
notes: Member of the JP5 alanine mutant library; also called JP5 alanine mutant 10
In experiment [1], B7 displayed an SELECTION/INPUT of 1.34.

B8: AM1 (peptide)
peptide: Ac-CATIRDINGTRC-NH2
modifications: bridge 1-12; also: bracket C1-C12, bond type not given here
notes: Member of the JP5 alanine mutant library; also called JP5 alanine mutant 1
As to B8, the SELECTION/INPUT in experiment [1] amounted to 0.33.

B9: AM8 (peptide)
peptide: Ac-CWTIRDINATRC-NH2
modifications: bridge 1-12; also: bracket C1-C12, bond type not given here
notes: Member of the JP5 alanine mutant library; also called JP5 alanine mutant 8
For B9, in [1], the SELECTION/INPUT stood at 0.338.

B10: AM7 (peptide)
peptide: Ac-CWTIRDIAGTRC-NH2
modifications: bridge 1-12; also: bracket C1-C12, bond type not given here
notes: Member of the JP5 alanine mutant library; also called JP5 alanine mutant 7
B10: the SELECTION/INPUT in experiment [1] stood at 1.53.

B11: B1.1, selected cyclic, disulfide peptide (bicyclic: lactam and disulfide), synthetic, without the N-terminal methionine (peptide)
peptide: WALQLCHSMFYTCKSG
modifications: N-terminal acetylation (ac); lactam (isopeptide) bridge Q4-K14; disulfide bond C6-C13
notes: Made by solid phase synthesis on Rink Amide resin; also called Selected B1.1; oxidized B1.1 (with disulfide bridge)
Turning to B11, the values for the Kd in experiment [7], in experiment [6] and in experiment [8] were 105 nM, 161 nM and 43.5 nM, respectively. The off-rate (koff) in experiment [3] is 0.0267 s⁻¹; in [6], 0.0176 s⁻¹; in experiment [9] it was 0.00674 s⁻¹. The figures for the kon in experiment [3], in [6] and in [9] were 253000 M⁻¹ s⁻¹, 109000 M⁻¹ s⁻¹ and 155000 M⁻¹ s⁻¹, respectively.

B12: AM6 (peptide)
peptide: Ac-CWTIRDANGTRC-NH2
modifications: bridge 1-12; also: bracket C1-C12, bond type not given here
notes: Member of the JP5 alanine mutant library; also called JP5 alanine mutant 6
For B12, the SELECTION/INPUT in experiment [1] is 1.99.
